Holding throughout (assay): flow cytometry, protein L-biotin then streptavidin-PE on CAR T cells
For orientation: In flow cytometry, cells or beads pass a laser one at a time.

In assay [1] the target is tandem CD19/CD20 chimeric antigen receptor, Construct CAR 1920 (Leader-CD19 VL-Whitlow linker CD19 VH (GGGGS)-5 CD20 VH (GGGGS)-3 CD20 VL CD8 hinge+TM-4-1BB-CD3z).
In assay [2] the target is CARs on the transduced T cell surface.
Assay [3] addresses tandem CD20/CD19 chimeric antigen receptor, Construct CAR 2019 (Leader-CD20 VH (GGGGS)3-CD20 VL-(GGGGS)5-CD19 VL-Whitlow linker-CD19 VH CD8 hinge+TM-4-1BB-CD3z).

Chain of tandem CD20/CD19 chimeric antigen receptor, Construct CAR 2019 (Leader-CD20 VH (GGGGS)3-CD20 VL-(GGGGS)5-CD19 VL-Whitlow linker-CD19 VH CD8 hinge+TM-4-1BB-CD3z) (chain, as listed by the source mutant): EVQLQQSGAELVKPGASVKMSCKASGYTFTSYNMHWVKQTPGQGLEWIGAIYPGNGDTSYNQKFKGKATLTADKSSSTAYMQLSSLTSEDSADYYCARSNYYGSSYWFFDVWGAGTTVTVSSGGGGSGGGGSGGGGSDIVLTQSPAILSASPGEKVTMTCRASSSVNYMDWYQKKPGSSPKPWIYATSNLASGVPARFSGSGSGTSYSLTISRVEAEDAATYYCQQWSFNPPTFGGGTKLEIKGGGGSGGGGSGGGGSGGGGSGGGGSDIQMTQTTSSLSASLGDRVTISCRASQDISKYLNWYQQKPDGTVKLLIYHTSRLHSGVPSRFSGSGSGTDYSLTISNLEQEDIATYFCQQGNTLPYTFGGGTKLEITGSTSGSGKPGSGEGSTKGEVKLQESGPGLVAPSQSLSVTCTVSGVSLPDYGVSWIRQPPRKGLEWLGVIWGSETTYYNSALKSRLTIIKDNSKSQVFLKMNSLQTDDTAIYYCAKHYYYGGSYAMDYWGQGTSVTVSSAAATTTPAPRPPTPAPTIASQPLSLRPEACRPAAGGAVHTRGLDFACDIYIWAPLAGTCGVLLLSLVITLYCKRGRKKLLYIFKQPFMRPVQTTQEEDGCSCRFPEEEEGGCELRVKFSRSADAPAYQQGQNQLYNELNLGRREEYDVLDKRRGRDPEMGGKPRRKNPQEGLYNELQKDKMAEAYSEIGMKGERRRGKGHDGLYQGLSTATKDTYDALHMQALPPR
Chain of tandem CD19/CD20 chimeric antigen receptor, Construct CAR 1920 (Leader-CD19 VL-Whitlow linker CD19 VH (GGGGS)-5 CD20 VH (GGGGS)-3 CD20 VL CD8 hinge+TM-4-1BB-CD3z) (chain, as listed by the source mutant): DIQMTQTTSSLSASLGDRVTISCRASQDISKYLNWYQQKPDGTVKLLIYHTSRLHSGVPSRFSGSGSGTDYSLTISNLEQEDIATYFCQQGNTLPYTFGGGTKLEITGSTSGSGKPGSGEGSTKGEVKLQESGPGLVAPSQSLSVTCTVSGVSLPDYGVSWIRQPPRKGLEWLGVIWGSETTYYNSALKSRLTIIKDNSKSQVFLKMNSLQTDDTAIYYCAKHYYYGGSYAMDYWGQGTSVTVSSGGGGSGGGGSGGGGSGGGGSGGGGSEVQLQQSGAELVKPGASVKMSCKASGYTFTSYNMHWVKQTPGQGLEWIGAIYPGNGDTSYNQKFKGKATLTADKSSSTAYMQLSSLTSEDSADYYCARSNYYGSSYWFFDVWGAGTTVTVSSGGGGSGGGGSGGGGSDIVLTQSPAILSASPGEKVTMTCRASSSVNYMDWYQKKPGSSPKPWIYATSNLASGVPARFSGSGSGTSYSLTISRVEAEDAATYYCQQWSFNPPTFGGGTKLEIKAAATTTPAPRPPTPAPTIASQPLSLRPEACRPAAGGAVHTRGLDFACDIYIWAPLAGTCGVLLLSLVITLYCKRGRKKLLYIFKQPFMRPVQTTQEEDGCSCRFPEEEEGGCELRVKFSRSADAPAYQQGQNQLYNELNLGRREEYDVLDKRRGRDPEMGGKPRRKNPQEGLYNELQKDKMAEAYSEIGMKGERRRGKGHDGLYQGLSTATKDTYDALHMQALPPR

protein L-biotin conjugate (GenScript): the percent of transduced T cells stained came out at 85% in assay [1] and 89% in assay [3]. Also, the percent of transduced T cells stained (CAR surface expression) in assay [2] was 61 to 93%.

The values are drawn from patent publication US20240034802A1.
